Source: US20150335719A1, “Intravitreal Injection of a Chimeric Phage Endolysin Ply187; Protection from Staphylococcus aureus Endophthalmitis” (priority 2014, published 2015)
Values joined by “and” are separate entries in the source; they are usually repeats but may differ in a detail not shown here. Identical values can stand only once.

Legend:
[1] = tested on: neutrophil (PMN) infiltration in retina/vitreous; experiment: Mouse S. aureus endophthalmitis: PMN infiltration by flow cytometry (CD45/Ly6G); format: in vivo, C57BL/6 mice; details: vs vehicle-treated/control eyes, 24 h post treatment
Procedure: FIG. 6 depicts infiltration of polymorphonuclear cells (PMNs) in the Ply187AN-KSH3b-treated mouse retina/vitreous cavity. Infected eyes were given intravitreal injections of either EB or chimeric Ply187AN-KSH3b for either 6 or 12 h post infection. Twenty four hour post Ply187AN-KSH3b treatment, the eyes (n=6) were enucleated and the retina/vitreous humor from two eyes were pooled to make single-cell suspensions. The cells were stained with anti-CD45 and anti-Ly6G mAbs. Post-acquisition, the cells were size-gated to differentiate them from debris. The percentage of dually positive PMNs was determined using a CD45-versus-Ly6G dot plot (upper-right quadrant). The data are summarized in a bar graph representative of duplicate experiments. *p<0.05 (student t-test)
Following euthanasia, the retinas were isolated from the eyes as described by Skeie et al. (2011. J. Vis. Exp. 50:2795) and were digested in Accumax (Millipore, Billerica, Mass.) for 10 min at 37° C. Retinas from two eyes were pooled together to obtain a sufficient number of cells. Following digestion, the retinal tissue was passed through a 23-gauge needle & syringe and filtered through a 40 μm cell strainer (BD Falcon, San Jose, Calif.). […] After subsequent washing steps, the cells were acquired on an Accuri C6 flow cytometer (Accuri, Ann Arbor, Mich.), and the data were analyzed using Accuri C6 software (Accuri, Ann Arbor, Mich.).

[2] = tested on: S. aureus RN6390 endophthalmitis; experiment: Mouse S. aureus endophthalmitis: histology (H&E) and TUNEL staining of retina; format: in vivo, C57BL/6 mice
Procedure: FIGS. 3A-3E show the effects of intravitreal injection of chimeric Ply187AN-KSH3b on the severity of S. aureus endophthalmitis. The eyes (n=10) of C57BL/6 mice were infected with S. aureus strain RN6390 and following either 6 h or 12 h post-infection, Ply187AN-KSH3b or EB (EB C) was administered by intravitreal injection. FIG. 3A depicts individual eyes assigned clinical scores (range 0 to 4; black dots represent an eye) and presented as mean clinical scores (bar with SEM). […] FIG. 3E depicts the total number of dead cells in the retinal sections that were counted and are presented as mean±SD of the TUNEL positive cells. A student's t test (**, p<0.005) was used for the statistical analysis and comparisons were made between the S. aureus (SA) control, SA+EBC, and SA+Ply187AN-KSH3b-treated group.
The embedding, sectioning, and Hematoxylin and Eosin (H & E) staining was performed by Excalibur Pathology Inc. (Oklahoma City, Okla.). For immunostaining, the eyes were fixed in Tissue-Tek® O.C.T. (Sakura, Torrance, Calif.) and five-micrometer-thick sagittal sections were collected from each eye and mounted onto microscope slides. TUNEL staining was performed on retinal cryo-sections using ApopTag® Fluorescein In situ Apoptosis Detection Kit as per manufacturer's instruction (Millipore, Billerica, Mass.).

S. aureus strain RN6390 = experiment: Inoculum effect study in vitro; format: cell-based, Staphylococcus aureus; details: dilutions 1:10,000 to 1:10, 1 h at MIC
Text: FIGS. 4 A, B and C depict the effect of chimeric Ply187AN-KSH3b on bacterial growth in vivo and in the vitreous humor (VH) in vitro and with increasing inoculums in vitro respectively. […] Twenty-four hours after the treatment, the eyes were enucleated, homogenized and the bacterial burden was estimated via serial dilution plating. FIG. 4B depicts a test showing the effect of the vitreous humor on Ply187AN-KSH3b antimicrobial activity where Ply187AN-KSH3b was mixed with calf vitreous humor and inoculated with 10^5 CFU of S. aureus. The survival of the bacteria was enumerated by CFU count at 2, 4 and 6 h of incubation. Statistical analysis was performed using unpaired student's t test (*, p<0.05; **, p<0.005; ***, p<0.0005). […] An increasing number of dilutions (1:10,000 to 1:10) of logarithmic phase of S. aureus (RN6390 strain) were treated with Ply187AN-KSH3b for 1 h followed by CFU enumeration on TSA plates. Statistical analysis was performed using unpaired student's t test (*, p<0.05; **, p<0.005; ***, p<0.0005).
To determine the effect of Vitreous Humor (VH) on antimicrobial activity of chimeric Ply187AN-KSH3b in vitro, bacteria (10^5 CFU) were incubated with chimeric Ply187AN-KSH3b in the presence of calf VH. Following incubation at 37° C. for the desired time, bacterial growth in VH was enumerated by serial dilution plating. […]

staphylococci = details: Mao et al.; cited from earlier work
[3] = tested on: retinal function in S. aureus-infected eyes; details: treatment 6 h post infection, ERG 24 h post treatment
Procedure: The percentage amplitude of the a- and b-waves retained in S. aureus (SA)-infected, treated and untreated mice were compared to normal uninfected mice and presented as mean±SD (FIG. 7D).
Scotopic ERG was used to determine retinal function following S. aureus infection and chimeric Ply187AN-KSH3b treatment (6 h post infection). The mice (control, infected and infected+treated) were anesthetized 24 h post Ply187AN-KSH3b treatment, maintained at 37° C. using a heat pad, and the pupils were dilated using 1% tropicamide ophthalmic solution. ERGs were recorded following bilateral mydriasis and at least 4 h of dark adaptation. Silver embedded thread eye electrodes (Ocuscience™ LLC, Kansas City, Mo.) were used to record the ERG. Reference needle electrodes (stainless steel subdermal needle electrodes) were placed in anterior scalp and a ground needle electrode was placed in the tail. ERG responses were acquired using an ERG system (Ocuscience™ LLC, Kansas City, Mo.) and analyzed using ERGVIEW 4.380V. Ganzfeld light stimulus was used to present ten 10 ms flashes, with light intensities, increasing from 0.0001 to 100 cd-s/m^2. The ERG a-wave was measured as amplitude between the ERG baseline and the first negative peak, and the ERG b-wave was measured as amplitude between the first negative peak and the first positive peak.

B1: Ply187AN-KSH3b: staphylococcal peptidoglycan hydrolase fusion protein: endopeptidase domain of prophage endolysin Ply187 plus SH3b cell wall-binding domain of phage K endolysin LysK (SEQ ID NO:1) (protein)
chain: MALPKTGKPTAKQVVDWAINLIGSGVDVDGYYGRQCWDLPNYIFNRYWNFKTPGNARDMAWYRYPEGFKVFRNTSDFVPKPGDIAVWTGGNYNWNTWGHTGIVVGPSTKSYFYSVDQNWNNSNSYVGSPAAKIKHSYFGVTHFVRPAYKAEPKPTPPLESTPATRPVTGSWKKNQYGTWYKPENATFVNGNQPIVTRIGSPFLNAPVGGNLPAGATIVYDEVCIQAGHIWIGYNAYNGNRVYCPVRTCQGVPPNQIPGVAWGVFKVEHHHHHH
modifications: Chemically Synthesized Fusion Protein
- reduction in neutrophil (PMN) infiltration [1]: 40-50% and ~50%
- histological analysis (H&E) of retina ([2]; 1 μg/eye intravitreal): preserved the integrity of the retina
- TUNEL+ cells (retinal cell death), average ([2]; retinal sections): 17.66 TUNEL^+ cells/eye
- activity with increasing bacterial numbers (S. aureus strain RN6390): no reduction in Ply187AN-KSH3b activity
- antimicrobial effectiveness relative to Ply187, Ply187AN and LysK (staphylococci): more effective antimicrobial than the full-length Ply187 or the truncated Ply187 (Ply187AN)
- ERG a- and b-wave amplitudes [3]: no significant decline in a- or b-wave amplitudes
- a- and b-wave amplitudes retained ([3]; vs uninfected): 90-95%
